Results taken from PMC10512822.

Molecular target: translocated ALK of ALK-translocated NSCLC tumors (n = 6) (human (endogenous in NSCLC tumors))
Assay: proximity ligation; Duolink PLA with mouse HER3 and rabbit ALK antibodies on FFPE sections of ALK-translocated NSCLC tumors (n = 6)

mean signal for PLA per cell (signals per cell): 17.2
Substance: human epidermal growth factor receptor 3 (from UniProt P21860 20-1342)
